Measured values published in publication PMC9482650, “Quantitative fragmentomics allow affinity mapping of interactomes” (Nature Communications, 2022).

T1: LIN7B, Q9HAP6
T1 sequence (Q9HAP6 88-185, limits assumed, looked up): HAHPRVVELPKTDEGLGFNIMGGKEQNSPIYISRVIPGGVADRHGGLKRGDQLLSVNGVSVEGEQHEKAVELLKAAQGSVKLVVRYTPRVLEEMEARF

T2: MPP7, Q5T2T1
T2 sequence (Q5T2T1 134-230, limits assumed, looked up): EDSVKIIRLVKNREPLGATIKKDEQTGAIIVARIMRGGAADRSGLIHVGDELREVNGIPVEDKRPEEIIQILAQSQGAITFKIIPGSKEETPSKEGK

T3: RHPN1, Q8TCX5
T3 sequence (Q8TCX5 508-602, limits assumed, looked up): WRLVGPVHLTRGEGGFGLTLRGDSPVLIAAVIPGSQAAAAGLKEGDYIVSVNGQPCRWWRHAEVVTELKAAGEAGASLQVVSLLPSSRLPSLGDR

T4: DFNB31_1, Q9P202
T4 sequence (Q9P202 135-233, limits assumed, looked up): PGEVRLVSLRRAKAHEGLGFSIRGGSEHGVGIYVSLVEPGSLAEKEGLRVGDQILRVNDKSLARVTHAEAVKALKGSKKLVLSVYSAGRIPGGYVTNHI

T5: DLG3_1, Q92796
T5 sequence (Q92796 125-227, limits assumed, looked up): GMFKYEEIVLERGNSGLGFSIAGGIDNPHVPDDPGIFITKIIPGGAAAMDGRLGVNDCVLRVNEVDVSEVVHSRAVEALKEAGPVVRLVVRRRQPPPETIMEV

T6: ARHGAP21, Q5T5U3
T6 sequence (Q5T5U3 45-169, limits assumed, looked up): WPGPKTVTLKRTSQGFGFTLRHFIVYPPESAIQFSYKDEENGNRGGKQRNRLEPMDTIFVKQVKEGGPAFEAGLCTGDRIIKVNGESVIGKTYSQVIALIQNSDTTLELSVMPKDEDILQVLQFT

T7: PDZRN3_1, Q9UPQ7
T7 sequence (Q9UPQ7 244-349, limits assumed, looked up): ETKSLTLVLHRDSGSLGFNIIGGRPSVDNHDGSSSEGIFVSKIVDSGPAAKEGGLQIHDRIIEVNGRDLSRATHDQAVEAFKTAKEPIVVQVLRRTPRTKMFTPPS

T8: PDZD7_3, Q9H5P4
T8 sequence (Q9H5P4 857-944, limits assumed, looked up): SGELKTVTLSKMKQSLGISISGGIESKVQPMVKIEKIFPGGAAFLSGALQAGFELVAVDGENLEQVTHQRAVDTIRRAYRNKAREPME

T9: DLG3_3, Q92796
T9 sequence (Q92796 374-475, limits assumed, looked up): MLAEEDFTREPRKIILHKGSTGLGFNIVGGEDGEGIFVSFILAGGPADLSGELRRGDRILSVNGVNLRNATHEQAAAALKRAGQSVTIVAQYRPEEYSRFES

T10: TIAM2, Q8IVF5
T10 sequence (Q8IVF5 885-986, limits assumed, looked up): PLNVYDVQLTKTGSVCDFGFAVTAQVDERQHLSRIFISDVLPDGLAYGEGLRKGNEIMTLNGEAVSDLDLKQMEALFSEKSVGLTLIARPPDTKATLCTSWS

T11: MPDZ_12, O75970
T11 sequence (O75970 1857-1958, limits assumed, looked up): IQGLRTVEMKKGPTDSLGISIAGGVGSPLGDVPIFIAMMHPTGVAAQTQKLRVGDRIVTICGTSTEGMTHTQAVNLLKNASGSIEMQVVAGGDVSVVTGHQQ

T12: SHANK1, Q9Y566
T12 sequence (Q9Y566 658-767, limits assumed, looked up): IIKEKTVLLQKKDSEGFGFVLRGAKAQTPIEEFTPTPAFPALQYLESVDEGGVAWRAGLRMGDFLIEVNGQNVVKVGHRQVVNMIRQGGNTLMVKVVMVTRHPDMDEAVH


What was measured:
Assay in all cases: holdup assay
Set-up in all cases: key: below the threshold = too weak to quantify, mostly under pKd 3.1 to 4
Conditions in all cases: plain residues with an end cap or a label only (N-terminal biotin on a linker: ado-ado)
[1] = target: T1, LIN7B, Q9HAP6
[2] = target: MAST1, Q9Y2H9
[3] = target: ARHGEF12, Q9NZN5-2
[4] = target: T2, MPP7, Q5T2T1
[5] = target: MAGI2_4, Q86UL8
[6] = target: T3, RHPN1, Q8TCX5
[7] = target: SCRIB_2, Q14160
[8] = target: T4, DFNB31_1, Q9P202
[9] = target: T5, DLG3_1, Q92796
[10] = target: T6, ARHGAP21, Q5T5U3
[11] = target: T7, PDZRN3_1, Q9UPQ7
[12] = target: T8, PDZD7_3, Q9H5P4
[13] = target: T9, DLG3_3, Q92796
[14] = target: SCRIB_3, Q14160
[15] = target: IL16_1, Q14005
[16] = target: PTPN3, P26045
[17] = target: DLG1_1, Q12959
[18] = target: T10, TIAM2, Q8IVF5
[19] = target: T11, MPDZ_12, O75970
[20] = target: HTRA2, O43464
[21] = target: LNX1_1, Q8TBB1
[22] = target: GOPC, Q9HD26
[23] = target: LDB3, O75112
[24] = target: T12, SHANK1, Q9Y566
[25] = target: PARD3_3, Q8TEW0
Sequence of PARD3_3, Q8TEW0 (Q8TEW0 582-685): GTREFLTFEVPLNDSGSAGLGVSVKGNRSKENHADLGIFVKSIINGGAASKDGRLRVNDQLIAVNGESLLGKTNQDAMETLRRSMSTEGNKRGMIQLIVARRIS

Sequence of PTPN3, P26045 (P26045 505-587): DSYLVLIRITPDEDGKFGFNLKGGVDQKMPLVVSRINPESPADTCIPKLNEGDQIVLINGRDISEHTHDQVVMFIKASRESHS
Sequence of IL16_1, Q14005 (Q14005 210-306): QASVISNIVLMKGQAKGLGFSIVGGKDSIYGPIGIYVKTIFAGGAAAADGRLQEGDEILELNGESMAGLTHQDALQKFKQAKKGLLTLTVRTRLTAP
Sequence of ARHGEF12, Q9NZN5-2 (Q9NZN5 other isoform, or with tags, fused parts or gaps): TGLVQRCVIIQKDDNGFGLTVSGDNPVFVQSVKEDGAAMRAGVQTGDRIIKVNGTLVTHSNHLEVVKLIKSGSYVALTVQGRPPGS
Sequence of MAST1, Q9Y2H9 (Q9Y2H9 962-1065): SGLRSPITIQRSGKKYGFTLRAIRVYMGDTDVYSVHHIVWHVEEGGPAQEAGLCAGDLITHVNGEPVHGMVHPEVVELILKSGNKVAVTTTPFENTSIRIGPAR
Sequence of HTRA2, O43464 (O43464 355-458): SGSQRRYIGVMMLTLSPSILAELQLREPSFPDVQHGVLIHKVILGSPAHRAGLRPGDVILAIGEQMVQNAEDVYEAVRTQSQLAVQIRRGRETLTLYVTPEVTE
Sequence of SCRIB_3, Q14160 (Q14160 999-1103): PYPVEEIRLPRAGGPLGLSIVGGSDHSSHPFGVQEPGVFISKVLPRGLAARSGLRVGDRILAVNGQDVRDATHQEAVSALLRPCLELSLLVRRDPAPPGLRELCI
Sequence of MAGI2_4, Q86UL8 (Q86UL8 772-865): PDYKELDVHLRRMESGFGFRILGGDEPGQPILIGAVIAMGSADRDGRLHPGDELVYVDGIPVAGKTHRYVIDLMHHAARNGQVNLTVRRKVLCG
Sequence of LDB3, O75112 (O75112 1-94): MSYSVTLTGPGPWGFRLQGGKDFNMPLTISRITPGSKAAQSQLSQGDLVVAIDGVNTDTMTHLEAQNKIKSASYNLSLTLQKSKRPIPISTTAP
Sequence of SCRIB_2, Q14160 (Q14160 857-960): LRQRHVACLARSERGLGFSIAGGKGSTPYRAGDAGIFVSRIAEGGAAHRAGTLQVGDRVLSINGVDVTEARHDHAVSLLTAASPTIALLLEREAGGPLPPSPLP
Sequence of LNX1_1, Q8TBB1 (Q8TBB1 261-371): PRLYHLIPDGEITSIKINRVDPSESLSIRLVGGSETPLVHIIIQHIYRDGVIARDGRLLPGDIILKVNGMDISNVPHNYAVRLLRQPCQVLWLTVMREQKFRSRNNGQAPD

pKd [1]	pKd [2]	pKd [3]	pKd [4]	pKd [5]	pKd [6]	pKd [7]	pKd [8]	pKd [9]	pKd [10]	pKd [11]	pKd [12]	pKd [13]	pKd [14]	pKd [15]	pKd [16]	pKd [17]	pKd [18]	pKd [19]	pKd [20]	Binder	also measured
below the threshold	below the threshold	4.9	below the threshold	below the threshold	below the threshold	below the threshold	below the threshold	below the threshold	4.02	3.69	4.78	below the threshold	4.41	below the threshold	4.02	3.72	below the threshold	below the threshold	below the threshold	SRPTKGPTLL [PLEKHH2, Q8IVE3]	pKd [21]: below the threshold; pKd [22]: below the threshold; pKd [23]: below the threshold; pKd [24]: below the threshold; pKd [25]: below the threshold
3.66	3.58	below the threshold	below the threshold	below the threshold	below the threshold	below the threshold	below the threshold	below the threshold	3.57	below the threshold	below the threshold	below the threshold	below the threshold	below the threshold	3.61	below the threshold	4.01	below the threshold	3.53	LTAQEQPVYI [APBA1, Q02410]	pKd [21]: below the threshold; pKd [22]: below the threshold; pKd [23]: below the threshold; pKd [24]: below the threshold; pKd [25]: 4.82
below the threshold	3.66	3.52	below the threshold	below the threshold	4.59	4.04	4.21	3.62	3.98	3.92	3.71	3.7	3.49	4.36	4.32	3.71	below the threshold	below the threshold	below the threshold	RPGFASESKV [ADRB1, P08588]	pKd [21]: 3.7; pKd [22]: 3.64; pKd [23]: below the threshold; pKd [24]: below the threshold; pKd [25]: below the threshold
